Laboratory results: paper PMC12075686, “Structural basis of phosphorylation-independent nuclear import of CIRBP by TNPO3” (Nature Communications, 2025)
Read-outs that look alike come from different tables or passages of the source. Non-standard residues stand in square brackets, D forms with d. Residues, ends and D or L forms follow the SMILES beside them. No end group written: not given here. pS = N[C@@H](COP(=O)(O)O)C(=O)O

Columns and labels:
[1] = molecular target: CPSF6 RS-NLS (Homo sapiens) (UniProt Q16630); test: FP; settings: cited from earlier work
[2] = molecular target: SRSF1 RS-NLS (Homo sapiens) (UniProt Q07955); test: FP; settings: cited from earlier work
TNPO3 WT = molecular target: T1, TNPO3 WT (Homo sapiens, UniProt Q9Y5L0); test: ITC, ligand titrated into TNPO3 WT; assay type: binding; settings: for Kd / ΔS: TNPO3 WT; for Kd: pH 7.5, read-out: TNPO3 binding Kd
T1 sequence (Q9Y5L0 1-923): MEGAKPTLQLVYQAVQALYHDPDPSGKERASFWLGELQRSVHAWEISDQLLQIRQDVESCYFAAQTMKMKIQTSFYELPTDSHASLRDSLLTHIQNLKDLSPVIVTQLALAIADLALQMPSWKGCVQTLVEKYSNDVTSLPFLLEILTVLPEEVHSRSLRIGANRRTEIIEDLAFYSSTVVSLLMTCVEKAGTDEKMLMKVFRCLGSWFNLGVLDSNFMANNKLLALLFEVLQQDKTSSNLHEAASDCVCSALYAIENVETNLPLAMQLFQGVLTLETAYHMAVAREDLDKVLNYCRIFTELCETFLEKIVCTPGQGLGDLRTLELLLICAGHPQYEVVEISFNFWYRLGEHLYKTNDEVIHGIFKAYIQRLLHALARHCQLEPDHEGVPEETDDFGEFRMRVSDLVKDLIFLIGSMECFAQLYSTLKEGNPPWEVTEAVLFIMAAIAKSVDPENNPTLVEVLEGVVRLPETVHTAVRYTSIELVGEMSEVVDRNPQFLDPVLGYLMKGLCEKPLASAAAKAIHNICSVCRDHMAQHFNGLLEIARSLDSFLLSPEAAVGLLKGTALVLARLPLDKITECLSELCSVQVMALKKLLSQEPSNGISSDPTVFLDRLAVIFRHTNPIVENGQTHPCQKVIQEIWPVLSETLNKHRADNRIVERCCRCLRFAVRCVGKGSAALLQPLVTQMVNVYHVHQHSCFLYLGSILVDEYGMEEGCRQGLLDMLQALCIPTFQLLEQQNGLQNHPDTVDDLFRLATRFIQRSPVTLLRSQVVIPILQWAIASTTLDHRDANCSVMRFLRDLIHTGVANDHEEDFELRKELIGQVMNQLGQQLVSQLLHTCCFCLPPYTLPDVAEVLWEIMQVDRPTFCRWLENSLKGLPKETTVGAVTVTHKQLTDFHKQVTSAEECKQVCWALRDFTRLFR
Procedure: ITC has been performed by a Malvern Microcal VP-ITC at 25 °C for all binding studies. Samples have been dissolved in Tris buffer containing 50 mM Tris–HCl, 150 mM NaCl, 2 mM TCEP, and 0.04% NaN3 at pH 7.5. Binding studies of CIRBP^RSY and SRSF1^RS were performed with TNPO3 WT, and studies of CIRBP (157–172) and its mutants/phosphorylations were performed with TNPO3 C511A, respectively. Injection has been carried out by a syringe containing ligand solution of 100 μM, which adds ligand step-wise into the cell containing 10 μM TNPO3 during 28 injections of 10 μL each. Data analysis, curve fitting, and calculation of Kd, ΔH, and ΔS have been carried out using Origin-based 7.0 software provided by the manufacturer. All replicated ITC data are shown in Supplementary Fig. 6 and Supplementary Table 1.

TNPO3 = test: NMR binding studies with TNPO3 (1H-15N HSQC, 1H-13C HMQC, 1H 1D, STD); parameters: species or system human; settings: pH 6.7; for spectral changes of 15N-labeled cargo upon addition of TNPO3 (1H,15N HSQC): 60 µM cargo, one stoichiometric equivalent of TNPO3, 298 K; for chemical shift perturbations of TNPO3 methyl groups upon ligand addition (1H,13C HMQC): 100 µM [IM-methyl 13C] labeled TNPO3, one stoichiometric equivalent of ligand, 298 K
Procedure: All NMR studies for TNPO3 were carried out using the wild type protein. Protein samples for ^1H-^13C HMQC were prepared at a concentration of 100 μM and equilibrated in a buffer containing 50 mM Tris–HCl, pH 6.7, 150 mM NaCl, 2 mM TCEP and 10% D2O. Spectral acquisitions for TNPO3 free and in complex with CIRBP^RSY and SRSF1^RS, respectively were performed at 298 K on a 700 MHz Bruker Avance III NMR spectrometer equipped with a TCI triple-resonance cryoprobe. The pulse program was sfhmqcf2gpph and the spectra were recorded with 32 scans, interscan delay of 1 s, 160 points in F1, 1024 points in F2, 5283.879 Hz spectral width in F1, and 11,160.714 Hz spectral width in F2. Spectra were processed using Topspin 4.1.3.
Spectral acquisitions for TNPO3 free and in complex with mCIRBP^RSY, pCIRBP^RSY, and pSRSF1^RS, respectively, were performed at 298 K on a 600 MHz Bruker Avance Neo NMR spectrometer equipped with a TXI 600S3 probehead. The pulse program was hmqcgpphwg and the spectra were recorded with 64 scans, interscan delay of 1 s, 200 points in F1, 1024 points in F2, 4545.455 Hz spectral width in F1, and 7812.500 Hz spectral width in F2. Spectra were processed using Topspin 4.3.0.
For ^1H-^15N HSQC spectra, protein samples were equilibrated in a buffer containing 50 mM Tris–HCl, pH 6.7, 150 mM NaCl, 2 mM TCEP, 0.04% NaN3, and 10% D2O (with additional 20 mM MgCl2 for CIRBP phosphorylation kinetics). Data were recorded at 298 K on the 600 MHz Bruker Avance Neo NMR spectrometer equipped with a TXI 600S3 probehead. The pulse program was hsqcetfpf3gpsi and was recorded with 8-16 scans, interscan delay of 1 s, 128 points in F1, 1024 points in F2, 1949.318 Hz spectral width in F1, and 9615.385 Hz spectral width in F2. Spectra were processed using Topspin 4.3.0.

[3] = molecular target: Transportin 3 (TNPO3), full-length wild type (human) (UniProt Q9Y5L0); test: ITC; 100 µM ligand in the syringe injected (28 x 10 µL) into 10 µM TNPO3 (WT or C511A) in the cell; 25 °C; 50 mM Tris-HCl pH 7.5, 150 mM NaCl, 2 mM TCEP, 0.04% NaN3
[4] = molecular target: T2, Transportin 3 (TNPO3), full-length wild type (human, UniProt Q9Y5L0 1-923); test: as above; settings: both partners purified
T2 construct: Transportin 3 (TNPO3), human, full-length wild type; For the NMR experiments made 15N-labelled with 13C-methyl labelling of isoleucine and methionine side chains ([IM-methyl 13C]); Vector pETM11-His6-protein A with a TEV site downstream of the protein A tag; also called TNPO3 WT; TNPO3 FL WT; source: E. coli BL21-(DE3) Star, purified (Ni-NTA, TEV cleavage, second Ni-NTA, SEC Superdex 200); not …
T2 sequence (looked up): T1 sequence (Q9Y5L0 1-923)

[5] = molecular target: T3, Transportin 3 (TNPO3), full-length wild type (human, UniProt Q9Y5L0 1-923); test: ITC; phosphorylated, rep2
T3 chain: T1 sequence (Q9Y5L0 1-923)

[6] = molecular target: T3, Transportin 3 (TNPO3), full-length wild …; test: ITC; phosphorylated
[7] = molecular target: T2, Transportin 3 (TNPO3), full-length wild …; test: NMR titration; 1H NMR spectra of 50 µM peptide free and with a stoichiometric amount (50 µM) of TNPO3 WT; line broadening of peptide signals; settings: both partners purified

Sequence of CPSF6 RS-NLS (Homo sapiens) (Q16630 490-551): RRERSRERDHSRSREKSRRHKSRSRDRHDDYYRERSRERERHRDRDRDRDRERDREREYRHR
Sequence of SRSF1 RS-NLS (Homo sapiens) (Q07955 198-227): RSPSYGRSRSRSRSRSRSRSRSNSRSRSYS

For TNPO3 (from UniProt Q9Y5L0), the Kd [1] is listed as 3.4 µM and the Kd [2] is listed as 1300 nM.

In the case of “pSRSF1^RS: SRSF1^RS phosphorylated in vitro using recombinant SRPK1 (DGPRSPSYGRSRSRSRS; also: multiple phosphoserines, sites not listed) [reference compound]”, the Kd (TNPO3 WT; ITC, 25 °C, replicate 1 (rep1)) is reported as 2490 ± 400 nM, the Kd (TNPO3 WT; ITC, 25 °C, replicate 2 (rep2)) is reported as 2460 ± 500 nM and the ΔS (TNPO3 WT; ITC, replicate 1 (rep1)) is reported as “–9.12 cal/mol/deg”. The ΔS (TNPO3 WT; ITC, replicate 2 (rep2)) was “–34.0 cal/mol/deg”, the “spectral changes of 15N-labeled cargo upon addition of TNPO3 (1H,15N HSQC)” value (TNPO3) was “extensive line broadening of several NMR signals” and the “chemical shift perturbations of TNPO3 methyl groups upon ligand addition (1H,13C HMQC)” value (shortened to “chemical shift perturbations”) (TNPO3) was “led to CSPs of several TNPO3 ^1H,^13C cross-peaks”.

With C[C@H](NC(=O)[C@H](Cc1ccc(O)cc1)NC(=O)[C@H](CO)NC(=O)[C@H](CC(=O)O)NC(=O)[C@H](Cc1ccc(O)cc1)NC(=O)[C@H](CO)NC(=O)[C@H](CC(=O)O)NC(=O)[C@H](CCCNC(=N)N)NC(=O)[C@H](Cc1ccc(O)cc1)NC(=O)[C@H](CO)NC(=O)CNC(=O)CNC(=O)[C@H](CO)NC(=O)[C@H](CO)NC(=O)[C@H](CCCNC(=N)N)NC(=O)[C@H](CC(=O)O)NC(=O)[C@H](COP(=O)(O)O)NC(=O)[C@H](Cc1ccc(O)cc1)NC(=O)CNC(=O)CNC(=O)[C@H](COP(=O)(O)O)NC(=O)[C@H](CCC(N)=O)NC(=O)[C@H](COP(=O)(O)O)NC(=O)[C@H](CCCNC(=N)N)NC(=O)[C@H](CO)NC(=O)[C@H](CO)NC(=O)[C@H](Cc1ccc(O)cc1)NC(=O)[C@H](Cc1ccc(O)cc1)NC(=O)[C@H](CC(=O)O)NC(=O)[C@H](CCCNC(=N)N)NC(=O)[C@H](CO)NC(=O)CN)C(=O)N[C@H](C(=O)N[C@@H](Cc1c[nH]cn1)C(=O)N[C@@H](CC(N)=O)C(=O)N[C@@H](CCC(=O)O)C(=O)O)[C@@H](C)O [pCIRBP^RSY] (H-GSRDYYSSR[pS]Q[pS]GGY[pS]DRSSGGSYRDSYDSYATHNE-OH) the “decrease of TNPO3 binding affinity upon SRPK1 phosphorylation” value (TNPO3 WT; ITC Kd 0.61 ± 0.10 versus 5.99 ± 0.96 µM) was “ten-fold”, the ΔS (TNPO3 WT; ITC, replicate 1 (rep1)) was “–112 cal/mol/deg” and the ΔS (TNPO3 WT; ITC, replicate 2 (rep2)) was “–50.6 cal/mol/deg”. For the same molecule, the “chemical shift perturbations” value (TNPO3) was “shifted to comparable end points”.

For “DGPRSPSYGRSRSRSRS [SRSF1^RS, recombinant canonical SR/RS-NLS of human SRSF1 (195-211), unphosphorylated, reference compound]”, the “Kd of binding to TNPO3 (ITC), as given in text and figures” value (TNPO3 WT; ITC, 100 µM ligand into 10 µM TNPO3 WT, 28 injections of 10 µL, 25 °C, 50 mM Tris–HCl, 150 mM NaCl, 2 mM TCEP, 0.04% NaN3, pH 7.5, error = SD of the fit) was “no binding was detectable”, the “spectral changes of 15N-labeled cargo upon addition of TNPO3 (1H,15N HSQC)” value (TNPO3) was “weak binding” and the “chemical shift perturbations” value (TNPO3) was “no binding was observed”.

In the case of “SR/RS-NLS of SRSF1, residues 195-211, phosphorylated in vitro by SRPK1 (from UniProt Q07955 195-211) (domain or fragment)”, the Kd [3] is reported as 2420 nM.

B1: Phosphorylated RSY region of CIRBP (138-172), phosphorylated in vitro by SRPK1 (domain or fragment, human, UniProt Q14011 138-172, looked up)
chain: SRDYYSSR[pS]Q[pS]GGY[pS]DRSSGGSYRDSYDSYATHNE
notes: also called pCIRBP^RSY; phosphorylated CIRBP^RSY; source: E. coli BL21-(DE3) Star, purified; phosphorylated in vitro with recombinant SRPK1 and ATP overnight, isolated by SEC (Superdex 30 Increase); not shown: His6, N-terminal, cleaved; protein A, N-terminal, cleaved
In the case of B1, the Kd [4] is reported as 5.99 µM, the Kd [5] is reported as 2540 nM and the Kd [6] is reported as 2540 nM.

B2: RBMX (276-291) synthetic peptide (peptide, UniProt P38159 276-291, looked up)
peptide: PSGGSYRDSYESYGNS
notes: also called RBMX^RSY (276–291); source: synthetic peptide (Peptide Specialty Laboratories GmbH)
B2: binds [7].

B3: P5CS (3-20) synthetic peptide (peptide, UniProt P54886 3-20, looked up)
peptide: SQVYRCGFQPFNQHLLPW
notes: Delta-1-pyrroline-5-carboxylate synthase (P5CS), human, residues 3-20; also called P5CS^RSY (3–20); delta-1-pyrroline-5-carboxylate synthase; source: synthetic peptide (Peptide Specialty Laboratories GmbH)
B3: binds [7].

B4: RBM39 (86-101) synthetic peptide (peptide, UniProt Q14498 86-101, looked up)
peptide: SRDRRFRGRYRSPYSG
notes: also called RBM39^RSY (86–101); source: synthetic peptide (Peptide Specialty Laboratories GmbH)
B4: binds [7].
